This is an account of results in patent US20220073584A1 (AstraZeneca / MedImmune, published 2022).

Common to all, as to test: cell-based or functional assay
For test [1], the target named is T1, human RXFP1 receptor (human, UniProt Q9HBX9 1-757).
T1 sequence (looked up): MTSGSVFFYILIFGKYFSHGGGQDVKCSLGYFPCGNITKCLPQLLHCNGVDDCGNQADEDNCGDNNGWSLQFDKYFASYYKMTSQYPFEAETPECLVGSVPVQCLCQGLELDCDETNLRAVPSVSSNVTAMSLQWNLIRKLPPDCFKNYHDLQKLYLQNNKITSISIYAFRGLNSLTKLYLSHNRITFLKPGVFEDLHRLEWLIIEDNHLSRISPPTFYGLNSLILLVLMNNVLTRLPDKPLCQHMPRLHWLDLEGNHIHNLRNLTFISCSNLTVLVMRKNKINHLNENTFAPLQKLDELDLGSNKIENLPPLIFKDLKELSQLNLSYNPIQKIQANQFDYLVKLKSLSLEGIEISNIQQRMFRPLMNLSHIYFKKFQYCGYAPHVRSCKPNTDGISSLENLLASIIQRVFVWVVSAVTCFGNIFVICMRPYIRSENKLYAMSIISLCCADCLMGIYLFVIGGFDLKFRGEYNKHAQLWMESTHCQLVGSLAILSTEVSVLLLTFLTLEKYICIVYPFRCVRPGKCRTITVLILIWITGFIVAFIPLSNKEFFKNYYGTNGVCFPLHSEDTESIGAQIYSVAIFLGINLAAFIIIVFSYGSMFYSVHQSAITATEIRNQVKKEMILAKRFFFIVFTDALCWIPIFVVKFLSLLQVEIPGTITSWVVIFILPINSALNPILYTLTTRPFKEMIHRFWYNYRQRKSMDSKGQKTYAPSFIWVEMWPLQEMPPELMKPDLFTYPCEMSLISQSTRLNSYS

For a further test, the target named is human RXFP2 (human, UniProt Q8WXD0 1-754).
Sequence of human RXFP2 (Q8WXD0 whole entry): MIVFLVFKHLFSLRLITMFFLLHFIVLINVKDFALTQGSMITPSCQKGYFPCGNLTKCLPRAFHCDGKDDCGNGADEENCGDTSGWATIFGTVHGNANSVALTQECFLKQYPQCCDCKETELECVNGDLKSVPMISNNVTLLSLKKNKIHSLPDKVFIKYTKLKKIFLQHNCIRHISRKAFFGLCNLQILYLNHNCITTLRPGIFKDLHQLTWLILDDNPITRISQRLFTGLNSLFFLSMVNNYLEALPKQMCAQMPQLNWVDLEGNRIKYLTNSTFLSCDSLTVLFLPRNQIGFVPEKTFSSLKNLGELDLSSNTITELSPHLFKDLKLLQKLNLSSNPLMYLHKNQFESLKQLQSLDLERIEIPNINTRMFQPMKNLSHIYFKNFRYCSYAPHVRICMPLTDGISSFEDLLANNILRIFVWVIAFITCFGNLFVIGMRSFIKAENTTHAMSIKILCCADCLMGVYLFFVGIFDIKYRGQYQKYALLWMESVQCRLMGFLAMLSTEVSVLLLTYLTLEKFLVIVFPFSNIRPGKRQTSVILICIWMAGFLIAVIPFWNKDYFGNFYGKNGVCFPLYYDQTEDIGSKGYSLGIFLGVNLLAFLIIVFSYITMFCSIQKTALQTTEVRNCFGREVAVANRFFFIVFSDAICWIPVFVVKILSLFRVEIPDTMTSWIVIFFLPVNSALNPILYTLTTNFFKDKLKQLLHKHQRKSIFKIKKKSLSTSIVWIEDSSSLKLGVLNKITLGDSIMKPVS
The target in another test is T2, mouse RXFP1 receptor (mouse, UniProt Q6R6I7 1-758).
T2 sequence (looked up): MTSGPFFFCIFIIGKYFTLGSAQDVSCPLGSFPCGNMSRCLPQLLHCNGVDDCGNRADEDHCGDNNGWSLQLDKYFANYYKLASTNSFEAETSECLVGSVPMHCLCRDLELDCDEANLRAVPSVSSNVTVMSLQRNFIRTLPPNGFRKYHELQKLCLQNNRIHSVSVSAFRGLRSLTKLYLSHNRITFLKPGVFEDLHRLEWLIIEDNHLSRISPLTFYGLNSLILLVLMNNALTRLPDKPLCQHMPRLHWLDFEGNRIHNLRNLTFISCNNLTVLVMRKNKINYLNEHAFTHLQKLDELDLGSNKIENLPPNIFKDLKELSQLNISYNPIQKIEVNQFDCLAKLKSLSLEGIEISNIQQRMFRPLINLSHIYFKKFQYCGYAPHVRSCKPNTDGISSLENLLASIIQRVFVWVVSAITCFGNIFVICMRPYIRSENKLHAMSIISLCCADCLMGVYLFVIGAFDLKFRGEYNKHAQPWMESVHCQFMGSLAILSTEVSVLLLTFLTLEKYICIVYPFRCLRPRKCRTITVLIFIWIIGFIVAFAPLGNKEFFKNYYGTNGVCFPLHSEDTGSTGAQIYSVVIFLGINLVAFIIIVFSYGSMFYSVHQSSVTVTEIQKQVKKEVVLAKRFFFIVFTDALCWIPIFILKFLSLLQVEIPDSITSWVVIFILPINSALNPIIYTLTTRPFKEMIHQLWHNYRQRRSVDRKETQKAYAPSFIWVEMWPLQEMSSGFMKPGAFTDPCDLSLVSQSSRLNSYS

Test [2] concerns the target T1, human RXFP1 receptor. The source holds these as a separate data set.

Residue numbers refer to the chain shown, from its start. Ends that are not written are not given here.

B1: hRLX2(BA)-Fc-TMΔTHTΔK_15-24AA (Fc fusion)
chain: SWMEEVIKLCGRELVRAQIAICGMSTWSGGGGSGGGGSGGGGSQLYSALANKCCHVGCTKRSLARFCAAAGGGGSGGGGSGGGGSGGGGSACPPCPAPEFEGGPSVFLFPPKPKDTLMISRTPEVTCVVVDVSHEDPEVKFNWYVDGVEVHNAKTKPREEQYNSTYRVVSVLTVLHQDWLNGKEYKCKVSNKALPASIEKTISKAKGQPREPQVYTLPPSREEMTKNQVSLTCLVKGFYPSDIAVEWESNGQPENNYKTTPPVLDSDGSFFLYSKLTVDKSRWQQGNVFSCSVMHEALHNHYTQKSLCLSPG
B1: the “hRXFP1 EC50 (M), cAMP HTRF assay in CHO-K1 RXFP1 Gs cells” value (shortened to “hRXFP1 EC50 (M), cAMP HTRF assay”) with human RXFP1 receptor [1] turned out to be 1.13e-09 M. The “hRXFP2 EC50 (M), cAMP HTRF assay in CHO-K1 RXFP2 Gs cells” value (“hRXFP2 EC50 (M), cAMP HTRF assay” below) in the test with human RXFP2 was greater than 4.33e-06 M. Also, in the test with mouse RXFP1 receptor, the “mRXFP1 EC50 (M), cAMP HTRF assay in CHO-K1 mRXFP1 Gs cells” value (from here on “mRXFP1 EC50 (M), cAMP HTRF assay”) was 8.78e-10 M.

B2: hRLX2-Fc-TMΔTHTΔK_15-24AA (Fc fusion)
chain: QLYSALANKCCHVGCTKRSLARFCGGGGSGGGGSGGGGSSWMEEVIKLCGRELVRAQIAICGMSTWSAAAGGGGSGGGGSGGGGSGGGGSACPPCPAPEFEGGPSVFLFPPKPKDTLMISRTPEVTCVVVDVSHEDPEVKFNWYVDGVEVHNAKTKPREEQYNSTYRVVSVLTVLHQDWLNGKEYKCKVSNKALPASIEKTISKAKGQPREPQVYTLPPSREEMTKNQVSLTCLVKGFYPSDIAVEWESNGQPENNYKTTPPVLDSDGSFFLYSKLTVDKSRWQQGNVFSCSVMHEALHNHYTQKSLSLSPG
On to B2, for which the “hRXFP1 EC50 (M), cAMP HTRF assay” value in the test with human RXFP1 receptor [1] stood at 4.97e-09 M. In addition, the “hRXFP2 EC50 (M), cAMP HTRF assay” value with human RXFP2 is greater than 3.09e-07 M. The “mRXFP1 EC50 (M), cAMP HTRF assay” value in the test with mouse RXFP1 receptor stood at 2.23e-09 M.

B3: Fc-TMΔTHTΔK_hRLX2_21-15AA (Fc fusion)
chain: GGGSACPPCPAPEFEGGPSVFLFPPKPKDTLMISRTPEVTCVVVDVSHEDPEVKFNWYVDGVEVHNAKTKPREEQYNSTYRVVSVLTVLHQDWLNGKEYKCKVSNKALPASIEKTISKAKGQPREPQVYTLPPSREEMTKNQVSLTCLVKGFYPSDIAVEWESNGQPENNYKTTPPVLDSDGSFFLYSKLTVDKSRWQQGNVFSCSVMHEALHNHYTQKSLSLSPGGGGGSGGGGSGGGGSGGGGGSQLYSALANKCCHVGCTKRSLARFCGGGGSGGGGSGGGGSSWMEEVIKLCGRELVRAQIAICGMSTWS
For B3, the “hRXFP1 EC50 (M), cAMP HTRF assay” value in the test with human RXFP1 receptor [1] turned out to be 2.6e-09 M. Moreover, the “hRXFP2 EC50 (M), cAMP HTRF assay” value in the test with human RXFP2 was greater than 6.78e-06 M. The “mRXFP1 EC50 (M), cAMP HTRF assay” value with mouse RXFP1 receptor was found to be 2.52e-09 M.

B4: Fc-TMΔTHTΔK_hRLX2(BA)_21-15AA (Fc fusion)
chain: GGGSACPPCPAPEFEGGPSVFLFPPKPKDTLMISRTPEVTCVVVDVSHEDPEVKFNWYVDGVEVHNAKTKPREEQYNSTYRVVSVLTVLHQDWLNGKEYKCKVSNKALPASIEKTISKAKGQPREPQVYTLPPSREEMTKNQVSLTCLVKGFYPSDIAVEWESNGQPENNYKTTPPVLDSDGSFFLYSKLTVDKSRWQQGNVFSCSVMHEALHNHYTQKSLSLSPGGGGGSGGGGSGGGGSGGGGGSSWMEEVIKLCGRELVRAQIAICGMSTWSGGGGSGGGGSGGGGSQLYSALANKCCHVGCTKRSLARFC
For B4, in the test with human RXFP1 receptor [1], the “hRXFP1 EC50 (M), cAMP HTRF assay” value amounted to 1.56e-08 M. In the test with human RXFP2, the “hRXFP2 EC50 (M), cAMP HTRF assay” value is greater than 8.22e-06 M. In addition, in the test with mouse RXFP1 receptor, the “mRXFP1 EC50 (M), cAMP HTRF assay” value is 8.82e-09 M.

B5: recombinant human Relaxin-2 (R&D Systems, catalogue number 6586-RN-025) (ligand)
chain 1: QLYSALANKCCHVGCTKRSLARFC
chain 2: DSWMEEVIKLCGRELVRAQIAICGMSTWS
modifications: not fully specified (bridges); ends and bridges not checked; also: two interchain and one intrachain disulfide bonds, positions not given here
With B5, the “EC50 (M), stimulation of cAMP production (HitHunter cAMP assay) in CHO-K1 RXFP1 Gs cells” value (shortened to “EC50 (M), stimulation of cAMP production”) in the test with human RXFP1 receptor [2] was 1.06e-10 M. The “hRXFP1 EC50 (M), cAMP HTRF assay” value with human RXFP1 receptor [1] was determined as 1.38e-10 M. Further, the “hRXFP2 EC50 (M), cAMP HTRF assay” value with human RXFP2 turned out to be 1.46e-07 M. In addition, the “mRXFP1 EC50 (M), cAMP HTRF assay” value with mouse RXFP1 receptor was 6.68e-11 M.

B6: Fc-YTE-TM_hRLX2_15-15AA (Fc fusion)
chain: DKTHTCPPCPAPEFEGGPSVFLFPPKPKDTLYITREPEVTCVVVDVSHEDPEVKFNWYVDGVEVHNAKTKPREEQYNSTYRVVSVLTVLHQDWLNGKEYKCKVSNKALPASIEKTISKAKGQPREPQVYTLPPSRDELTKNQVSLTCLVKGFYPSDIAVEWESNGQPENNYKTTPPVLDSDGSFFLYSKLTVDKSRWQQGNVFSCSVMHEALHNHYTQKSLSLSPGKGGGGSGGGGSGGGGSQLYSALANKCCHVGCTKRSLARFCGGGGSGGGGSGGGGSSWMEEVIKLCGRELVRAQIAICGMSTWS
In the case of B6, in the test with human RXFP1 receptor [2], the “EC50 (M), stimulation of cAMP production” value stood at 5.39e-09 M.

B7: Fc-YTE-FQQ_hRLX2_15-15AA (Fc fusion)
chain: B6 chain with E15Q, K102Q, S111P
In the case of B7, the “EC50 (M), stimulation of cAMP production” value with human RXFP1 receptor [2] was determined as 4.56e-09 M.
